Results taken from US20260242419A1, “A CYCLIC PEPTIDE FOR TRAPPING INTERLEUKIN-1 BETA” (Merck Sharp & Dohme LLC, priority 2023, published 2026).
Starred links: 1 amine or outer side, 2 acyl side, 3 side chain; linkers in the order of their positions; H or OH if unused. Non-standard residues stand in square brackets, D forms with d. F4bcpA = 3-[4-[(2S)-2-amino-2-carboxy-ethyl]phenyl]bicyclo[1.1.1]pentane-1-carboxylic acid, O=C([C@H](Cc1ccc(C23CC(C(=O)[*:3])(C2)C3)cc1)N[*:1])[*:2]; PyrimAla4Ph4CO2H = 4-[5-[(2S)-2-amino-2-carboxy-ethyl]pyrimidin-2-yl]benzoic acid, O=C([C@H](Cc1cnc(-c2ccc(C(=O)[*:3])cc2)nc1)N[*:1])[*:2]; 3Pal4CO2H = 5-[(2S)-2-amino-2-carboxy-ethyl]pyridine-2-carboxylic acid, O=C([C@H](Cc1ccc(C(=O)[*:3])nc1)N[*:1])[*:2]; TyrEtNAc = (2S)-3-[4-(2-acetamidoethoxy)phenyl]-2-amino-propanoic acid, CC(=O)NCCOc1ccc(C[C@H](N[*:1])C(=O)[*:2])cc1; Phe(4-(5-CO2H-2-pyrimidyl)) = N[C@@H](Cc1ccc(-c2ncc(C(=O)O)cn2)cc1)C(=O)O; dPro(4R-(4-pyridylmethyl)) = O=C(O)[C@H]1C[C@@H](Cc2ccncc2)CN1; Ala(piperidin-4-yl) = O=C([C@H](CC1CCN([*:3])CC1)N[*:1])[*:2]; Trp(βS-Me,4-F) = C[C@@H](c1c[nH]c2cccc(F)c12)[C@H](N)C(=O)O; Bip(4'-COOH) = N[C@@H](Cc1ccc(-c2ccc(C(=O)O)cc2)cc1)C(=O)O; Ala(1-bicyclo(1.1.1)pentyl) = N[C@@H](CC12CC(C1)C2)C(=O)O; dPro(4R-Bzl(4-F)) = O=C(O)[C@H]1C[C@@H](Cc2ccc(F)cc2)CN1; Ala(morpholin-4-yl) = N[C@@H](CN1CCOCC1)C(=O)O; Ala(piperazin-1-yl) = N[C@@H](CN1CCNCC1)C(=O)O; Ala(pyrimidin-5-yl) = N[C@@H](Cc1cncnc1)C(=O)O; Phe(4-COOH) = N[C@@H](Cc1ccc(C(=O)O)cc1)C(=O)O; Pro(cis-4-F) = O=C(O)[C@@H]1C[C@H](F)CN1; cisHyp = O=C(O)[C@@H]1C[C@H](O)CN1; 4Pal = N[C@@H](Cc1ccncc1)C(=O)O; αMeS = C[C@](N)(CO)C(=O)O; Dab = NCC[C@H](N)C(=O)O; Dap = NC[C@H](N)C(=O)O; Aib = CC(C)(N)C(=O)O

B1: SEQ ID NO: 96 (peptide)
peptide: cyclo([Bip(4'-COOH)][Ala(1-bicyclo(1.1.1)pentyl)][Phe(4-COOH)]G[Pro(cis-4-F)][Trp(βS-Me,4-F)][Aib]EW[Aib][Dap]QSG[dPro(4R-(4-pyridylmethyl))])
SMILES: C[C@@H](c1c[nH]c2cccc(F)c12)[C@@H]1NC(=O)[C@@H]2C[C@H](F)CN2C(=O)CNC(=O)[C@H](Cc2ccc(C(=O)O)cc2)NC(=O)[C@H](CC23CC(C2)C3)NC(=O)[C@H](Cc2ccc(-c3ccc(C(=O)O)cc3)cc2)NC(=O)[C@H]2C[C@@H](Cc3ccncc3)CN2C(=O)CNC(=O)[C@H](CO)NC(=O)[C@H](CCC(N)=O)NC(=O)[C@H](CN)NC(=O)C(C)(C)NC(=O)[C@H](Cc2c[nH]c3ccccc23)NC(=O)[C@H](CCC(=O)O)NC(=O)C(C)(C)NC1=O
B2: SEQ ID NO: 95 (peptide)
peptide: cyclo([TyrEtNAc][4Pal][Phe(4-COOH)]G[Pro(cis-4-F)][Trp(βS-Me,4-F)][Aib]EW[Aib][4Pal]Q[Dab]G[dPro(4R-Bzl(4-F))])
SMILES: CC(=O)NCCOc1ccc(C[C@@H]2NC(=O)[C@H]3C[C@@H](Cc4ccc(F)cc4)CN3C(=O)CNC(=O)[C@H](CCN)NC(=O)[C@H](CCC(N)=O)NC(=O)[C@H](Cc3ccncc3)NC(=O)C(C)(C)NC(=O)[C@H](Cc3c[nH]c4ccccc34)NC(=O)[C@H](CCC(=O)O)NC(=O)C(C)(C)NC(=O)[C@H]([C@@H](C)c3c[nH]c4cccc(F)c34)NC(=O)[C@@H]3C[C@H](F)CN3C(=O)CNC(=O)[C@H](Cc3ccc(C(=O)O)cc3)NC(=O)[C@H](Cc3ccncc3)NC2=O)cc1
B3: SEQ ID NO: 99 (peptide)
peptide: cyclo([F4bcpA][Ala(1-bicyclo(1.1.1)pentyl)][Phe(4-COOH)]G[Pro(cis-4-F)][Trp(βS-Me,4-F)][Aib]EW[Aib][Ala(pyrimidin-5-yl)]Q[Dab]G[dPro(4R-Bzl(4-F))])
SMILES: C[C@@H](c1c[nH]c2cccc(F)c12)[C@@H]1NC(=O)[C@@H]2C[C@H](F)CN2C(=O)CNC(=O)[C@H](Cc2ccc(C(=O)O)cc2)NC(=O)[C@H](CC23CC(C2)C3)NC(=O)[C@H](Cc2ccc(C34CC(C(=O)O)(C3)C4)cc2)NC(=O)[C@H]2C[C@@H](Cc3ccc(F)cc3)CN2C(=O)CNC(=O)[C@H](CCN)NC(=O)[C@H](CCC(N)=O)NC(=O)[C@H](Cc2cncnc2)NC(=O)C(C)(C)NC(=O)[C@H](Cc2c[nH]c3ccccc23)NC(=O)[C@H](CCC(=O)O)NC(=O)C(C)(C)NC1=O
B4: SEQ ID NO: 97 (peptide)
peptide: cyclo([Bip(4'-COOH)][Ala(1-bicyclo(1.1.1)pentyl)][Phe(4-COOH)]G[Pro(cis-4-F)][Trp(βS-Me,4-F)][αMeS]SW[Aib]SQ[Dab]G[dPro(4R-Bzl(4-F))])
SMILES: C[C@@H](c1c[nH]c2cccc(F)c12)[C@@H]1NC(=O)[C@@H]2C[C@H](F)CN2C(=O)CNC(=O)[C@H](Cc2ccc(C(=O)O)cc2)NC(=O)[C@H](CC23CC(C2)C3)NC(=O)[C@H](Cc2ccc(-c3ccc(C(=O)O)cc3)cc2)NC(=O)[C@H]2C[C@@H](Cc3ccc(F)cc3)CN2C(=O)CNC(=O)[C@H](CCN)NC(=O)[C@H](CCC(N)=O)NC(=O)[C@H](CO)NC(=O)C(C)(C)NC(=O)[C@H](Cc2c[nH]c3ccccc23)NC(=O)[C@H](CO)NC(=O)[C@](C)(CO)NC1=O
B5: SEQ ID NO: 98 (peptide)
peptide: cyclo([Bip(4'-COOH)][Ala(1-bicyclo(1.1.1)pentyl)][3Pal4CO2H]G[Pro(cis-4-F)][Trp(βS-Me,4-F)][Aib]EW[Aib][Ala(pyrimidin-5-yl)]Q[Dab]G[dPro(4R-Bzl(4-F))])
SMILES: C[C@@H](c1c[nH]c2cccc(F)c12)[C@@H]1NC(=O)[C@@H]2C[C@H](F)CN2C(=O)CNC(=O)[C@H](Cc2ccc(C(=O)O)nc2)NC(=O)[C@H](CC23CC(C2)C3)NC(=O)[C@H](Cc2ccc(-c3ccc(C(=O)O)cc3)cc2)NC(=O)[C@H]2C[C@@H](Cc3ccc(F)cc3)CN2C(=O)CNC(=O)[C@H](CCN)NC(=O)[C@H](CCC(N)=O)NC(=O)[C@H](Cc2cncnc2)NC(=O)C(C)(C)NC(=O)[C@H](Cc2c[nH]c3ccccc23)NC(=O)[C@H](CCC(=O)O)NC(=O)C(C)(C)NC1=O
B6: SEQ ID NO: 93 (peptide)
peptide: cyclo([Bip(4'-COOH)][Ala(1-bicyclo(1.1.1)pentyl)][Phe(4-COOH)]G[Pro(cis-4-F)][Trp(βS-Me,4-F)][Aib]EW[Aib][Dap]Q[Dab]G[dPro(4R-(4-pyridylmethyl))])
SMILES: C[C@@H](c1c[nH]c2cccc(F)c12)[C@@H]1NC(=O)[C@@H]2C[C@H](F)CN2C(=O)CNC(=O)[C@H](Cc2ccc(C(=O)O)cc2)NC(=O)[C@H](CC23CC(C2)C3)NC(=O)[C@H](Cc2ccc(-c3ccc(C(=O)O)cc3)cc2)NC(=O)[C@H]2C[C@@H](Cc3ccncc3)CN2C(=O)CNC(=O)[C@H](CCN)NC(=O)[C@H](CCC(N)=O)NC(=O)[C@H](CN)NC(=O)C(C)(C)NC(=O)[C@H](Cc2c[nH]c3ccccc23)NC(=O)[C@H](CCC(=O)O)NC(=O)C(C)(C)NC1=O
B7: SEQ ID NO: 92 (peptide)
peptide: cyclo([PyrimAla4Ph4CO2H][Ala(1-bicyclo(1.1.1)pentyl)][Phe(4-COOH)]G[Pro(cis-4-F)][Trp(βS-Me,4-F)][Aib]EW[Aib][Ala(pyrimidin-5-yl)]Q[Dab]G[dPro(4R-Bzl(4-F))])
SMILES: C[C@@H](c1c[nH]c2cccc(F)c12)[C@@H]1NC(=O)[C@@H]2C[C@H](F)CN2C(=O)CNC(=O)[C@H](Cc2ccc(C(=O)O)cc2)NC(=O)[C@H](CC23CC(C2)C3)NC(=O)[C@H](Cc2cnc(-c3ccc(C(=O)O)cc3)nc2)NC(=O)[C@H]2C[C@@H](Cc3ccc(F)cc3)CN2C(=O)CNC(=O)[C@H](CCN)NC(=O)[C@H](CCC(N)=O)NC(=O)[C@H](Cc2cncnc2)NC(=O)C(C)(C)NC(=O)[C@H](Cc2c[nH]c3ccccc23)NC(=O)[C@H](CCC(=O)O)NC(=O)C(C)(C)NC1=O
B8: SEQ ID NO: 91 (peptide)
peptide: cyclo([PyrimAla4Ph4CO2H][4Pal][Phe(4-COOH)]G[Pro(cis-4-F)][Trp(βS-Me,4-F)][Aib]EW[Aib][Ala(pyrimidin-5-yl)]Q[Dab]G[dPro(4R-Bzl(4-F))])
SMILES: C[C@@H](c1c[nH]c2cccc(F)c12)[C@@H]1NC(=O)[C@@H]2C[C@H](F)CN2C(=O)CNC(=O)[C@H](Cc2ccc(C(=O)O)cc2)NC(=O)[C@H](Cc2ccncc2)NC(=O)[C@H](Cc2cnc(-c3ccc(C(=O)O)cc3)nc2)NC(=O)[C@H]2C[C@@H](Cc3ccc(F)cc3)CN2C(=O)CNC(=O)[C@H](CCN)NC(=O)[C@H](CCC(N)=O)NC(=O)[C@H](Cc2cncnc2)NC(=O)C(C)(C)NC(=O)[C@H](Cc2c[nH]c3ccccc23)NC(=O)[C@H](CCC(=O)O)NC(=O)C(C)(C)NC1=O
B9: SEQ ID NO: 127 (peptide)
peptide: cyclo([Bip(4'-COOH)][4Pal][Phe(4-COOH)]G[cisHyp][Trp(βS-Me,4-F)][Aib]SW[Aib][Ala(pyrimidin-5-yl)]Q[Dab]G[dPro(4R-Bzl(4-F))])
modifications: ring closure inferred; not fully specified (bridges); printed as Bip4CO2H-4Pal-Phe4COOH-G-Proc4OH-SbMeW4F-Aib-S-W-Aib-PyrimAla-Q-Dab-G-dProc4Bn4F
B10: SEQ ID NO: 94 (peptide)
peptide: cyclo([Phe(4-(5-CO2H-2-pyrimidyl))][Ala(1-bicyclo(1.1.1)pentyl)][Phe(4-COOH)]G[Pro(cis-4-F)][Trp(βS-Me,4-F)][Aib]AW[Aib]SQ[Dab]G[dPro(4R-Bzl(4-F))])
SMILES: C[C@@H]1NC(=O)C(C)(C)NC(=O)[C@H]([C@@H](C)c2c[nH]c3cccc(F)c23)NC(=O)[C@@H]2C[C@H](F)CN2C(=O)CNC(=O)[C@H](Cc2ccc(C(=O)O)cc2)NC(=O)[C@H](CC23CC(C2)C3)NC(=O)[C@H](Cc2ccc(-c3ncc(C(=O)O)cn3)cc2)NC(=O)[C@H]2C[C@@H](Cc3ccc(F)cc3)CN2C(=O)CNC(=O)[C@H](CCN)NC(=O)[C@H](CCC(N)=O)NC(=O)[C@H](CO)NC(=O)C(C)(C)NC(=O)[C@H](Cc2c[nH]c3ccccc23)NC1=O

Tests used:
[1] = molecular target: Recombinant human IL-1β (BioLegend 579404) (human, UniProt P01584 117-269); assay: cell-based or functional assay
[2] = molecular target: Recombinant human IL-1β (BioLegend 579404) (human, UniProt P01584 117-269); assay: cell-based or functional assay; remark: listed apart in the source

Row | Binder | MRC5 IC50 [1] | MRC5 IC50 [2]
1 | B1 | 0.067 nM | 
2 | B2 | 0.054 nM | 
3 | B3 | 0.031 nM | 
4 | B4 | 0.036 nM | 
5 | cyclo([Bip(4'-COOH)][4Pal][Phe(4-COOH)]G[Pro(cis-4-F)][Trp(βS-Me,4-F)][Aib]EW[Aib][Ala(morpholin-4-yl)]Q[Dab]G[dPro(4R-Bzl(4-F))]) (ring closure inferred) [SEQ ID NO: 126] |  | 0.022 nM
6 | B5 | 0.058 nM | 
7 | cyclo([Bip(4'-COOH)][4Pal][Phe(4-COOH)]G[Pro(cis-4-F)][Trp(βS-Me,4-F)][Aib]EW[Aib][Ala(morpholin-4-yl)]QSG[dPro(4R-Bzl(4-F))]) (ring closure inferred) [SEQ ID NO: 125] |  | 0.041 nM
8 | B6 | 0.059 nM | 
9 | cyclo([Bip(4'-COOH)][4Pal][Phe(4-COOH)]G[Pro(cis-4-F)][Trp(βS-Me,4-F)][Aib]EW[Aib][Ala(morpholin-4-yl)]QSG[dPro(4R-Bzl(4-F))]) (ring closure inferred) [SEQ ID NO: 124] |  | 0.018 nM
10 | cyclo([Bip(4'-COOH)][4Pal][Phe(4-COOH)]G[Pro(cis-4-F)][Trp(βS-Me,4-F)][Aib]EW[Aib][Ala(piperidin-4-yl)]QSG[dPro(4R-Bzl(4-F))]) (ring closure inferred) [SEQ ID NO: 121] |  | 0.029 nM
11 | B7 | 0.07 nM | 
12 | cyclo([Bip(4'-COOH)][4Pal][Phe(4-COOH)]G[Pro(cis-4-F)][Trp(βS-Me,4-F)][Aib]EW[Aib][Ala(morpholin-4-yl)]Q[Dab]G[dPro(4R-Bzl(4-F))]) (ring closure inferred) [SEQ ID NO: 123] |  | 0.017 nM
13 | B8 | 0.054 nM | 
14 | B9 |  | 0.013 nM
15 | cyclo([Bip(4'-COOH)][4Pal][Phe(4-COOH)]G[Pro(cis-4-F)][Trp(βS-Me,4-F)][Aib]EW[Aib][Ala(piperazin-1-yl)]QSG[dPro(4R-Bzl(4-F))]) (ring closure inferred) [SEQ ID NO: 122] |  | 0.019 nM
16 | B10 | 0.096 nM | 
